Values quoted from earlier work in patent US20250341526A1, “NOVEL DYES” (Quantum-Si Incorporated, priority 2024, published 2025).
Entries after “also recorded” stand apart in the source; their conditions may differ.

B1: PS406: ClpS amino acid recognition protein, SEQ ID NO: 29 (protein)
chain: MPDATTTPRTKTLTRTARPPLHKVILVNDDFTPREFVVRLLKAEFRTTGDEAQRIMITAHMKGSCVVAVFTREIAESKATRATETARAEGFPLLFTTEPEE
B2: PS396: ClpS amino acid recognition protein, SEQ ID NO: 24 (protein)
chain: MSDNDVALKPKIKSKPKLERPKLYKVILVNDDFTPREFVIAVLKMVFRMSEETGYRVMLTAHRLGTSVVVVCARDIAETKAKEAVDFGKEAGFPLMFTTEPEE
B3: PS369: ClpS amino acid recognition protein, SEQ ID NO: 2 (protein)
chain: MTSTLRARPARDTDLQHRPYPHYRIIVLDDDVNTFQHVVNCLVTFLPGMTRDQAWAMAQQVDGEGSAVVWTGPQEQAELYHVQLGNHGLTMAPLEPV
B4: PS407: ClpS amino acid recognition protein, SEQ ID NO: 30 (protein)
chain: MPSNKRQMCLSDIKNSFNESGIVDWHISPRLANEPSEEGDSDLAVQTVPPELKRPPLYAVVLLNDDYTPMEFVIEILQQYFAMNLDQATQVMLTVHYEGKGVAGVYPRDIAETKANQVNNYARSQGHPLLCQIEPKD
B5: PS404: ClpS amino acid recognition protein, SEQ ID NO: 27 (protein)
chain: MPVSVTAPQTKTKTKPKVERPKLYKVILVNDDFTPREFVVRVLKAEFRMSEDQAAKVMMTAHQRGVCVVAVFTRDVAETKATRATDAGRAKGYPLLFTTEPEE
B6: PS397: ClpS amino acid recognition protein, SEQ ID NO: 25 (protein)
chain: MSDNEVAPKRKTRVKPKLERPRLYKVILVNDDYTPRDFVVMVLKAIFRMSEEAGYRVMMTAHKLGTSVVVVCARDIAETKAKEATDLGKEAGFPLMFTTEPEE
B7: PS408: ClpS amino acid recognition protein, SEQ ID NO: 31 (protein)
chain: MTDPPSKGREDVDLATRTKPKTQRPPLYKVLLLNDDFTPMEFVVHILERLFGMTHAQAIEIMLTVHRKGVAVVGVFSHEIAETKVAQVMELARRQQHPLQCTMEKE
B8: PS398: ClpS amino acid recognition protein, SEQ ID NO: 26 (protein)
chain: MPLKAQNRSIVGRRDEWPPPTTQSSSETKSESKRVSDTGADTKRKTKTVPKVEKPRLYKVILVNDDYTPREFVLVVLKAVFRMSEDQGYKVMITAHQKGSCVVAVYTRDIAETKAKEAVDLAKEIGFPLMFRTEPEE
B9: PS405: ClpS amino acid recognition protein, SEQ ID NO: 28 (protein)
chain: MVSIGAATVACAEGRPIFSGYFDWLAAMPETVTVPRTRLRPKTERPKLHKVILVNDDYTPREFVVTVLKGEFHMSEDQAQRVMITAHRRGVCVVAVFTKDVAETKATRASDAGRAKGYPLQFTTEPEE

Test system: amino acid at a terminal position of a polypeptide
Conditions: Table 1, ClpS proteins; amino acid at terminal position; inferred from literature and/or demonstrated by the inventors; cited from earlier work

Molecule	Binding Pref.
B1	F, Y, W
B2	F, W
B3	F, Y, W, L
B4	F, Y, W, L
B5	F, Y, W
B6	F, Y, W
B7	F, Y, W, L
B8	F, W
B9	F, Y, W

Same assay, conditions: Table 2; amino acid at terminal position (phosphotyrosine also internal); inferred from literature and/or demonstrated by the inventors; cited from earlier work

Molecule	Binding Pref.
H. sapiens p62 fragment 1-180: amino acid recognition protein, SEQ ID NO: 121	K, R, H,; also recorded: W, F, Y
H. sapiens p62 fragment 126-180: amino acid recognition protein, SEQ ID NO: 122	K, R, H,; also recorded: W, F, Y
Rattus norvegicus p62 protein: amino acid recognition protein, SEQ ID NO: 124	K, R, H,; also recorded: W, F, Y
